Assay results taken from patent US20040202655A1 (published 2004).
Changes are numbered by the printed parent chain. Where “and” joins values, the source holds several entries; their conditions need not be identical. Equal entries are not always repeated.

B1: PINT-7A2 IgG (antibody, V domains shown)
VH: GVQLVQSGAEVKKPGESLTISCKGSGYNFFNYWIGWVRQMPGKGLEWMGIIYPTDSDTRYSPSFQGQVTISVDKSISTAYLQWSSLKASDTAMYYCARSIRYCPGGRCYSGYYGMDVWGQGTMVTVSS
VL: SELTQDPAVSVALGQTVRITCQGDSLRSYYTNWFQQKPGQAPLLVVYAKNKRPSGIPDRFSGSSSGNTASLTITGAQAEDEADYYCNSRDSSGNHVVFGGGTKLTVLG
B2: PINT-7A6 IgG (antibody, V domains shown)
VH: B1 VH with G1E, M123L
VL: B1 VL
B3: PINT-11A1 IgG (antibody, V domains shown)
VH: EVQLVESGGGVVQPGRSLRLSCAASGFTFSDFAMHWVRQIPGKGLEWLSGLRHDGSTAYYAGSVKGRFTISRDNSRNTVYLQMNSLRAEDTATYYCVTGSGSSGPHAFPVWGKGTLVTVSS
VL: not shown
B4: PINT-11A11 IgG (antibody, V domains shown)
VH: QVQLVESGGGLVKPGGSLRLSCAASGFTFSSHTMNWVRQAQGKGLEWVSSISGSGRYIYYSDSVKGRFTISRDAAKNSLYLQMNNLRAEDTAVYYCTRAKFGDYLFDSWGQGTLVTVSS
VL: LNFMLTQPHSVSQSPGKTVTISCTRSSGRIASNFVQWYQQRPGSAPTTVIYEDNRRPSGVPDRFSGSIDSSSNSASLTISGLKTEDEADYYCQSYDARYQVFGTGTKVTVLG
B5: PINT-11A12 IgG (antibody, V domains shown)
VH: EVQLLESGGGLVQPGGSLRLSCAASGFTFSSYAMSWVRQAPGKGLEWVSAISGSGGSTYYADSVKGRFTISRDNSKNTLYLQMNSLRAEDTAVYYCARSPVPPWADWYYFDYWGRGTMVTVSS
VL: AQAVLTQPSSVSGAPGQRVTISCTGSRSNFGAGYDVHWYQQFPGTAPKLLIYGNTNRPSGVPDRFSGSRSGTSASLAITGLQAEDEADYYCQSYDSNLSGSVFGGGTKVTVLG
B6: PINT-11A2 IgG (antibody, V domains shown)
VH: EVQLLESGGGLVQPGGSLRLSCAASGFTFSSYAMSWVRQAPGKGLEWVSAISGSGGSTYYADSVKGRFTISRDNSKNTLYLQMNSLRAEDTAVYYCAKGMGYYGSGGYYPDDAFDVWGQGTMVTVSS
VL: LSSELTQDPDVSMALGQTVTISCRGDSLKRFYASWYHQKPGQAPVLVFYGKENRPSGIPDRFSGSDSGDTASLTITGAQAEDEGDYYCHTQDTSARQYVFGSGTKVTVLG
B7: PINT-11A3 IgG (antibody, V domains shown)
VH: EVQLVQSGAEVKKPGASVKVSCKASGYSFTNYGLNWVRQAPGQGLEWMGWISPYTGYTNYAQKFQGRVTMTTDKSTSTAYMDLRSLRSDDTAVYYCAREIFSHCTGGSCYPFDSWGRGTLVTVSS
VL: LSSELTQDPAVSVALGQTVRITCQGDSLRNYYASWYQQKPGQAPLLVMFGKNNRPSEIPGRFSGSSSGNTASLTITGAQAEDEADYYCNSRDRNSHQWVFGGGTKLTVLG
B8: PINT-11A5 IgG (antibody, V domains shown)
VH: B7 VH with E1Q, R117K
VL: LSSELTQDPAVSVALGQTVRITCQGDSLRSYYASWYQQKPGQAPVLVIYGKNNRPSGIPDRFSGSSSGNTASLTITGAQAEDEADYYCNSRDSSGNHHWVFGGGTKVTVLG
B9: PINT-12A1 IgG (antibody, V domains shown)
VH: B7 VH with R117K
VL: LSSELTQDPAVSVALGQTVRITCQGDSLRNYYASWYQQKPGQAPVLVLYSKNSRPSGVPDRFSGSSSGTTASLTISGAQAEDEADYYCNSRDTSGDLRWVFGGGTKLTVLG
notes: see recheck
B10: PINT-11A7 IgG (antibody, V domains shown)
VH: B7 VH with N35D, L120M
VL: LSSELTQDPAVSVALGQTVRITCQGDSLRSYYASWYQQKPGQAPVLVIYGKNNRPSGIPDRFSGSSSGNTASLTITGAQAEDEADYYCNSRDSSGNHRNWVFGGGTKVTVLG
B11: PINT-12A3 IgG (antibody, V domains shown)
VH: B7 VH with E1Q, T72S, V93I, T105S, S114Y, R117Q
VL: B10 VL with V45L, K51R, G95T, R98G, K107Q, V108L, G112S
B12: PINT-12A4 IgG (antibody, V domains shown)
VH: B7 VH with E1Q, L120M
VL: B8 VL with H97L, H98N, K106Q, V107L, G111S
B13: PINT-12A2 IgG (antibody, V domains shown)
VH: B7 VH with R117Q
VL: B7 VL with R93S

Columns and labels:
[1] = molecular target: T1, human IGF-I receptor on cells (NIH-3T3 fibroblasts expressing the human IGF-IR; DU145 cells) (human, UniProt P08069 31-1367); test: competition with 125I-IGF-II, NIH-3T3 cells expressing human IGF-1R, 4 C
T1 construct: whole, on cells; Mature receptor is an alpha2-beta2 tetramer cut from one precursor; also called IGF-1R; hu-IGF-1R
Procedure: (§1) NIH-3T3 fibroblasts expressing the human IGF-IR, or NIH-3T3 non-transfected fibroblasts were plated at 6×10⁴ cells per well in 0.5 ml of DMEM (Gibco, #11960-044) supplemented with 10% heat-inactivated fetal bovine serum (Gibco, #16140-071), 2 mM L-glutamine (Gibco, #25030-081) and 50 U/ml penicillin-streptomycin (Gibco, #15070-063). The NIH-3T3 cells were used as a control for non-specific cell binding. The plates were incubated at 37° C./5% CO₂ for 24 hours to allow cells to attach and become 80-90% confluent. The overlying media was then replaced with 0.5 ml per well of starvation media consisting of DMEM, 20 mM Hepes (Gibco, #15630-080), 2 mM L-glutamine and 0.1% bovine serum albumin (Equitech-Bio, protease-free, Kerrville, Tex.) and the plates were incubated at 37° C., 5% CO₂ overnight. All subsequent binding steps were conducted at 4° C. Test antibodies were diluted in ice-cold starvation media to the desired final concentration and 100 μl added per well. All samples were performed in duplicate. […] Cell monolayers were washed three times with ice-cold PBS (Gibco, #14040-117) and cells and associated radioactivity were released by adding 0.5ml 2% sodium dodecyl sulfate/0.2N NaOH to each well and heating the plates at 60° C. for 15 minutes. Lysate associated radioactivity was quantitated by gamma scintillation spectrometry. Alternatively, the same described experiment was performed with preincubation with the test antibodies at 37° C. for 10 minutes, followed by 10 minutes incubation at 37° C. after addition of 400 pM of the iodinated radioligand.

[2] = molecular target: T1, human IGF-I receptor on cells (NIH-3T3 …); test: cell-based or functional assay
[3] = molecular target: T1, human IGF-I receptor on cells (NIH-3T3 …); test: cell-based or functional assay; remark: listed apart in the source
[4] = molecular target: T1, human IGF-I receptor on cells (NIH-3T3 …); test: competition with 125I-IGF-I, NIH-3T3 cells expressing human IGF-1R, 4 C
Procedure: as §1

[5] = molecular target: T2, human insulin receptor on CHO cells (human, UniProt P06213 28-1382); test: competition with 125I-insulin, CHO cells expressing human insulin receptor, 4 C
T2 construct: whole, on cells
Procedure: The Parental 3T3 cells were used as a control for background radioactivity. We then incubated the plates at 37° C., 5% CO₂ for 24 hours to allow cells to attach and become 80-90% confluent. The media was decanted from the plates, replaced with 500 μl per well of starvation or assay media consisting of IMDM, 20 mM Hepes (Gibco, #15630-080), 2 mM L-glutamine and 0.1% bovine serum albumin (Equitech-Bio, protease-free, Kerryville, Tex.) and the plates were incubated at 37° C., 5% CO₂ overnight. The antibodies were diluted in cold assay media to the desired final concentration and added 100 μl per well. All samples were performed in duplicate. The plates were incubated at 4° C. for 30 minutes. […] The plates were incubated for 2.5 hours at 4° C., then aspirated the media and washed 3× with cold DPBS (Gibco, #14040-117). The cells were lysed by adding 500 μl 0.2 NaOH, 2% SDS and incubating the plates for 15 minutes at 60° C. The samples were transferred to 12×75 tubes (Sarsted, #55.476, 5 ml) and the signal read on a gamma counter.

Binder	IC50 [1]	IC50 (nM), IGF-1 dependent proliferation of NIH-3T3/hIGF-1R cells (BrdU ELISA) [2]	Antagonist Assay IC50 (nM), IGF-I-induced IGF-1R tyrosine phosphorylation (ELISA) [3]	IC50 [4]	IC50 [5]
B1	< 0.8 nM and 0.4 nM	5 nM and 3.8 nM	2.62 nM and 1.97 nM	0.5 nM and 1.3 nM	–
B2	< 0.8 nM and 0.3 nM	> 70 nM	9.7 nM and 8.5 nM	1 nM and 0.8 nM	–
B3	> 75 nM	5.4 nM and 3.3 nM	5.4 nM and 7.4 nM	8 nM and 10 nM	–
B4	–	16.4 nM and 25 nM	14.9 nM and 10.6 nM	1.6 nM	> 200 nM
B5	–	> 70 nM	> 40 nM	–	> 200 nM
B6	–	> 70 nM	> 40 nM	> 100 nM	–
B7	–	32.1 nM and > 70 nM	–	1.1 nM and 1.2 nM	–
B8	–	> 70 nM	> 40 nM	1.2 nM and < 0.4 nM and 0.75 nM	> 200 nM
B9	–	> 70 nM	> 40 nM	1.5 nM and 1.2 nM	> 200 nM
B10	–	> 70 nM	26.6 nM and > 40 nM and 25.5 nM	1 nM and 1.4 nM	> 200 nM
B11	–	> 70 nM	> 40 nM	1.5 nM and 1.7 nM	> 200 nM
B12	–	> 70 nM	> 40 nM	> 50 nM	> 200 nM
B13	–	> 70 nM	> 40 nM	1 nM and 0.7 nM	> 200 nM
